Blank lines part the entries; values can stand above or below the binder they belong to.
Experiments:
[1] = molecular target: human c-Met on cells (MKN-45, A549, HPAF, BxPC3) (human, UniProt P08581 25-1390); assay: cell-based or functional assay
[2] = molecular target: T1, Decoy c-Met (extracellular domain of human c-Met) (human, Glycoprotein. In cells it is cleaved by furin after residue 307 into disulfide-linked alpha and beta parts; written here as one chain.); assay: binding ELISA, human c-Met (Decoy)
T1 construct: construct after Basilico et al. 2008; also called Decoy Met; monomeric Decoy Met
T1 chain: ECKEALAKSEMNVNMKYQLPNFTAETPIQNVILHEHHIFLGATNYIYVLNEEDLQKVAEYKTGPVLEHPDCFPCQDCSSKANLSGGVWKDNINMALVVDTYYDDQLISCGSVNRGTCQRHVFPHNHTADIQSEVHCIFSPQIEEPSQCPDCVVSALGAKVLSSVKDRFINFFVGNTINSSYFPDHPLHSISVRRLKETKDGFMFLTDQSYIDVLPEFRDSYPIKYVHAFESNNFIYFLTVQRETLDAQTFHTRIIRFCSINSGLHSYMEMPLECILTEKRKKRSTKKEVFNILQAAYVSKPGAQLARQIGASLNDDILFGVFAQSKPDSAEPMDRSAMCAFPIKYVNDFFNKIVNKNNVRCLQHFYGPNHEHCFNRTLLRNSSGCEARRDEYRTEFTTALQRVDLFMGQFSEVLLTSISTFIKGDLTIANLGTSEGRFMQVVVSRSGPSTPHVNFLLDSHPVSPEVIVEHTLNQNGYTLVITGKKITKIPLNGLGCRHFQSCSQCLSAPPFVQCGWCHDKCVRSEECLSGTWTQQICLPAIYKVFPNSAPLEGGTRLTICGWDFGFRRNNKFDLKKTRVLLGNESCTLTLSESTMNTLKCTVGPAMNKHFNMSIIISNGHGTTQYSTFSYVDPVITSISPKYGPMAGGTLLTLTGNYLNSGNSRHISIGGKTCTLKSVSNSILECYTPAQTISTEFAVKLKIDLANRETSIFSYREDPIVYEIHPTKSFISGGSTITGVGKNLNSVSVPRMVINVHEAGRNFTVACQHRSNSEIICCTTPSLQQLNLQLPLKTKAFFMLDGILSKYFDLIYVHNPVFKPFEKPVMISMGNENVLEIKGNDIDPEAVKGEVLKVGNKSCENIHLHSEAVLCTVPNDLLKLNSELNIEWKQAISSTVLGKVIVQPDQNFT

[3] = molecular target: T2, llama-human c-Met chimera L110 (aa608-909) (human; Llama glama); assay: ELISA, mAb coated at 2 µg/ml, chimera added, streptavidin-HRP
T2 construct: label probably LI10
Source text: (§1) An ELISA was run to investigate the binding of the mAbs to the different chimeras.

[4] = molecular target: T3, llama-human c-Met chimera LS4 (aa1-348) (Llama glama; human); assay: as above
T3 construct: as LS1
Source text: as §1

[5] = molecular target: T4, llama-human c-Met chimera L18 (aa540-909) (human; Llama glama); assay: as above
T4 construct: label probably LI8
Source text: as §1

[6] = molecular target: T5, llama-human c-Met chimera LS2 (aa1-199) (Llama glama; human); assay: as above
T5 construct: as LS1
Source text: as §1

[7] = molecular target: llama-human c-Met chimera LS1 (aa1-98) (Llama glama; human); assay: as above
Source text: as §1

[8] = molecular target: T6, llama-human c-Met chimera LS5 (aa1-448) (Llama glama; human); assay: as above
T6 construct: as LS1
Source text: as §1

[9] = molecular target: T7, llama-human c-Met chimera L111 (aa634-909) (human; Llama glama); assay: as above
T7 construct: label probably LI11
Source text: as §1

[10] = molecular target: T8, llama-human c-Met chimera LS3 (aa1-287) (Llama glama; human); assay: as above
T8 construct: as LS1
Source text: as §1

[11] = molecular target: T9, llama-human c-Met chimera L19 (aa572-909) (human; Llama glama); assay: as above
T9 construct: label probably LI9
Source text: as §1

[12] = molecular target: T10, recombinant dimeric c-Met (R&D systems, 358-MT/CF) (human, UniProt P08581 25-932); assay: competition ELISA: recombinant dimeric c-Met captured on the plate, mAb dilutions, then 25 ng/ml N-terminally biotinylated HGF as competitor, strep-HRP, 620 nm; % competition against the controls
T10 construct: bought protein; also called recombinant c-Met; Fc-Met; not shown: C-terminal Fc portion (captured with anti-human Fc) and a His tag (captured with anti-His)
Method: Competition with N-terminally biotinylated HGF for binding to immobilized c-Met was performed using an ELISA-based competition assay. Five μg/ml mouse anti-His antibodies (Serotech) was immobilized on a maxisorb plate and, after blocking with 1% casein in PBS for 2 h, 100 ng/ml recombinant dimeric c-Met was added and incubated for 1 h at room temperature. After washing, dilutions of the antibodies were added and allowed to bind to the captured c-Met for 30 minutes, before 25 ng/ml N-terminally biotinylated HGF (R&D systems, 294-HGN/CF) was added. Biotinylated HGF was incubated at room temperature for 1 h before washing. Horseradish-conjugated streptavidin (strep-HRP) was added and incubated for an additional hour. TMB was added and the plate read at 620 nm. An isotype control (hIgG1λ) was included as a control as well as murine 5D5 antibody. Competition was expressed as percentage competition as compared to the controls (strep-HRP only or hIgG1λ) and plotted against the concentration of antibodies. An IC₅₀ was calculated using GraphPad Prism (Table 10). Antibodies 13E6 and 20A11 only displaced HGF partially (about 50%), which may be related to the epitope these two mAbs recognize on the c-Met.

[13] = molecular target: T11, human c-Met ECD (aa 25-932) with His tag (human, Glycoprotein. Furin cleavage after residue 307 gives disulfide-linked alpha and beta parts; written here as one chain.); assay: ELISA: 200 ng of recombinant c-Met ECD protein coated, mAb 1 h, HRP goat anti-human antibody, TMB, OD 620 nm
T11 construct: also called human c-Met (WT)
T11 chain: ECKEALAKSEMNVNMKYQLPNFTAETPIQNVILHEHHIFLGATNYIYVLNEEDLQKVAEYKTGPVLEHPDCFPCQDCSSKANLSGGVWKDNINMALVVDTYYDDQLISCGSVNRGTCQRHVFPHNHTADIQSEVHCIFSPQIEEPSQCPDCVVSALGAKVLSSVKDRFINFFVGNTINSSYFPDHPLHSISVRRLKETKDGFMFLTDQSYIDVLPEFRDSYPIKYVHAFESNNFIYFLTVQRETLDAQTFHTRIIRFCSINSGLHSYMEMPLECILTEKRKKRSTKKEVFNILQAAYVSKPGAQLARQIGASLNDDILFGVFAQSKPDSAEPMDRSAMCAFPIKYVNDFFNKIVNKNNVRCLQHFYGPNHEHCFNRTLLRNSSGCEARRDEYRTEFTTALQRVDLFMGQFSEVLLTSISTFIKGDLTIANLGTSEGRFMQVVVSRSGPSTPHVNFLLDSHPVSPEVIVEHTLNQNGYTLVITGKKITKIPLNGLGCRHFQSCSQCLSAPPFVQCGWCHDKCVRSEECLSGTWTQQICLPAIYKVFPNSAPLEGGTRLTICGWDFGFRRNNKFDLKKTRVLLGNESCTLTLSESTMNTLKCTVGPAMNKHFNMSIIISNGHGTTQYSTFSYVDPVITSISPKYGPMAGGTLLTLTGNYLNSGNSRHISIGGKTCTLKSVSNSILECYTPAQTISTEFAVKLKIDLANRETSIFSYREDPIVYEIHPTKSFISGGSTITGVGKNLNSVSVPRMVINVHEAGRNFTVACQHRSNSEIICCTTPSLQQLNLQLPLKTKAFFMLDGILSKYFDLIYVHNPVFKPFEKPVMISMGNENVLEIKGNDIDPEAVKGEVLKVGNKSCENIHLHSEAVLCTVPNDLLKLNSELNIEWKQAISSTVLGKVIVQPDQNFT
Method: 200 ng of the different chimeric recombinant cMet proteins were immobilized on maxisorb plates overnight at 4° C. After washing with PBS, the plates were blocked with 0.1% casein for 2 h at RT, before the mAbs were added and allowed to bind to the c-Met for 1 h at RT. After washing, HRP-conjugated goat anti-human antibody (diluted 1/5000, Jackson Labs) was added and incubated for 1 h at RT before additional washing and addition of TMB. The optical density at 620 nm was read and the values were represented in a graph against the concentration of mAbs.

B1: 38H10 mAb (antibody, human IgG1, V domains shown)
VH: EVQLVQPGVELRNPGASVKVSCKASGYIFTMNSIDWVRQAPGQGLEWMGRIDPEDGGTKYAQKFQGRVTFTADTSTSTAYVELNSLRSEDTAVYYCARVDDYYLGYDYWGQGTQVTVSS
VL: EIVMTQSPSSVTASAGEKVTINCKSSQSVLWRSNQKNYLAWYQQRLGQSPRLLISWASIRESGVPDRFSGSGSTTDFTLTISSFQPEDAAVYYCQQGYSFPYTFGSGTRLEIK
notes: human IgG1 constant domains and human C kappa
antibody-induced proliferation of BxPC3 cells (agonism) [1]: < 20 % of the proliferation obtained with 75 ng/ml HGF | EC50 [2]: 190 pM

B2: 48A2 mAb (antibody, human IgG1, V domains shown)
VH: EVQLVQPGVELRNPGASVKVSCKASGYIFTMNSIDWVRQAPGQGLEWMGRIDPEDGGTKYAQKFQGRVTFTADTSTSTAYVELNSLRSEDTAVYYCARVDDYYLGYDYWGQGTQVTVSS
VL: DIVMTQTPTSVTASAGDKVTINCKSSQSVLFSSNQKNYLAWYQQRLGQSPRLLIYWASIRESGVPDRFSGSGSATDFTLTISNFQPEDAAVYYCQQGYSFPYSFGSGTRLEIR
notes: VL-shuffled variant of 38H10; human IgG1 and C kappa
EC50 [3]: > 0.04 µg/mL | EC50 [4]: 0.07 µg/mL | EC50 [5]: > 0.04 µg/mL | EC50 [6]: 0.034 µg/mL | EC50 [7]: 0.031 µg/mL | EC50 [8]: 0.05 µg/mL | EC50 [9]: 0.042 µg/mL | EC50 [10]: 0.05 µg/mL | EC50 [11]: > 0.04 µg/mL

Continued by falling EC50 [2], values first:

EC50 (read off the curve) [13]: ~1000 pM | EC50 [2]: 190 pM
B4: 13E6 mAb (antibody, human IgG1, V domains shown)
VH: QVQLQESGGDLVQPGGSLRLSCAASGFTFDDYVMNWVRQAPGKGLEWISAINWNGGSTYYAESMKGRFTISRDNAKNTLYLQMYSLQSDDTAVYYCVKDTVVSGNGYWGQGTQVTVSS
VL: QSVLTQPPSVSGTLGKTVTISCAGTSSDIGDYNYVSWYQQLPGTAPKLLIYDVNKRASGIPDRFSGSKSGNTASLSISGLQSEDEADYYCASYRSRNDYAFGGGTKLTVL
notes: human IgG1 constant domains and human C lambda

antibody-induced proliferation of BxPC3 cells (agonism) [1]: < 20 % of the proliferation obtained with 75 ng/ml HGF | EC50 [2]: 140 pM | IC50 (read off the curve) [12]: ~70 pM
B3: 40B8 mAb (antibody, human IgG1, V domains shown)
VH: EVQLVQPGAELRNPGASVKVSCKASGYTFTNYVIDWVRQAPGQGLEWMGRIDPENGGTRYAQKFQGRVTFTADTSTSTAYVELSNLRSEDTAVYYCARLEDYELAYDYWGQGTQVTVSS
VL: DIVMTQTPSSVTASAGEKVTINCKSSQSVLLSSNQKNYLAWYQQRLGQSPRLLIYWASTRESGVPDRFSGSGSTTDFTLTISSFQPEDAAVYYCQQGVSFPLTFGQGTKVELK
notes: as for B1

From patent US20170349667A1 (ARGEN X B V, published 2017)
